Test results reported in patent publication US6489299B2, “Methods for treatment of multiple sclerosis using peptide analogues at position 91 of human myelin basic protein” (Stanford University Medical Center, priority 1994, dated 2002).

Tests used:
[1] = test system: lymph node cells (LNC) reactive to MBP (87-99); experiment: Antigen-specific lymph node cell proliferation assay; assay type: cell-based, Lewis rat; conditions: 10 μM peptide, 3 days, [3H]-thymidine; FIG. 4
Description: FIG. 4 is a graph displaying the proliferative response of MBP-reactive lymph node cells to position 91-substituted analogues. Two different substitutions were tested. The proliferative response of lymph node cells to 10 μM of MBP (87-99), motilin, A91 or K91 was determined. Proliferation is shown as counts per minute. BKG, no peptide added; 87-99, MBP (87-99); motilin, an unrelated peptide; A91, peptide analogue with alanine at position 91; K91, peptide analogue with D-lysine at position 91.
As an alternative to the use of T cell lines as described above, draining lymph node cells from Lewis rats immunized with MBP (87-99) may be used. […] Cultures are harvested on fiberglass filters and counted in a scintillation counter. Mean CPM and the standard error of the mean are calculated from data determined in triplicate cultures. […]
For the assay, 100 μl of the lymph node suspension was added to 96-well flat-bottom wells in the presence of an equal volume of medium containing 10 μM of various peptides (including: motilin as a negative control; MBP87-99; medium only, or alanine or D-amino acid substituted at position 91). […] The plates were then harvested with a Matrix filtermate harvester (Packard) and counted using an Automatic Direct Beta Counter (Packard). Mean cpm and the standard error of the mean were calculated from triplicate wells.

[2] = test system: MBP specific rat T cell line (NBI); experiment: Antigen-specific T cell line proliferation assay; assay type: cell-based; conditions: three days, [3H]-thymidine; analogues at 20-120 μM; FIG. 3
Description: FIG. 3 is a graph displaying the proliferative response of the T cell line NBI to position 91-substituted analogues. Ten different substitutions were tested. The proliferative response of NBI in response to concentrations of analogues ranging from 0 to 150 μM was determined. Proliferation is shown as counts per minute. Standard errors of the mean were less than ±10%. MBP 87-99; peptides from human myelin basic protein containing residues 87 to 99; K, lysine; R, arginine; N, asparagine; H, histidine; L, leucine; S, serine; G, glycine; k, D-lysine; E, glutamic acid; F, phenylalanine; and A, alanine.
In the direct proliferation assay, MBP (87-99) reactive T cell lines may be used as target cells. T cell lines are established from lymph nodes taken from rats injected with MBP (87-99). […] After 5 to 6 passages in this manner, the proliferative potential of the cell lines are determined. […] Cultures are harvested and incorporated counts determined. Mean CPM and standard error of the mean are calculated from triplicate cultures. […]
For this antigen-specific proliferation assay, T cell lines as established in Example 3 were used. […] Cultures were harvested on fiberglass filters and the proliferative response expressed as CPM±SD or as stimulation index (SI) (mean CPM from test cultures divided by mean CPM from control cultures).

[3] = test system: EAE; conditions: rat, in vivo
Description: In addition, as a safety measure, but not essential to this invention, suitable peptide analogues may be tested for direct induction of EAE. As described in detail in Example 2, various amounts of peptide analogues are injected at the base of the tail of rats, and the rats examined daily for signs of EAE. A peptide analogue which is not considered to cause EAE has a mean cumulative score of less than or equal to 1 over seven days when 1 mg (5 mg/kg) in complete Freund's adjuvant is injected.
MBP peptides and analogues were dissolved in phosphate-buffered saline (PBS) and emulsified with an equal volume of incomplete Freund's adjuvant supplemented with 4 mg/ml heat-killed Mycobacterium tuberculosis H37Ra in oil (Difco Laboratories, Inc., Detroit, Mich.). Rats were immunized subcutaneously in the hind foot pads with 0.1 ml of the emulsion and were monitored for clinical signs daily by an observer blind to the treatment protocol. For intravenous injections MBP peptides and analogues were dissolved in normal saline. EAE was scored as follows: 0, clinically normal; 1, flaccid tail; 2, hind limb paralysis; 3, front and hind limb paralysis.
The ability of peptide analogues to cause EAE is assessed in vivo. Rats were injected with MBP (87-99) or (91K>A) peptide analogue as described in Example 2. Animals were monitored daily for evidence of EAE. Rats receiving MBP (87-99) had 100% incidence (18/18 rats) of EAE with a mean maximum clinical score of 2.4±0.2. In contrast, 0/12 rats receiving the peptide analogue (91k>A) had EAE.

[4] = test system: multiple sclerosis; conditions: human, in vivo; cited from earlier work

**Q.** Which results are given for CC[C@H](C)[C@H](NC(=O)[C@@H]1CCCN1C(=O)[C@@H](NC(=O)[C@@H](N)Cc1ccccc1)C(C)C)C(=O)N[C@@H](Cc1ccccc1)C(=O)N[C@H](C(=O)N[C@@H](Cc1ccc(O)cc1)C(=O)NCC(=O)N[C@@H](CCC(=O)O)C(=O)N[C@@H](CC(C)C)C(=O)N[C@@H](CCC(N)=O)C(=O)N[C@@H](CCCNC(=N)N)C(=O)N[C@@H](CCSC)C(=O)N[C@@H](CCC(N)=O)C(=O)N[C@@H](CCC(=O)O)C(=O)N[C@@H](CCCCN)C(=O)N[C@@H](CCC(=O)O)C(=O)N[C@@H](CCCNC(=N)N)C(=O)N[C@@H](CC(N)=O)C(=O)N[C@@H](CCCCN)C(=O)NCC(=O)N[C@@H](CCC(N)=O)C(=O)O)[C@@H](C)O [motilin, reference compound]?
**A.** proliferative response of MBP (87-99)-reactive lymph node cells (in words) [1]: failed to respond as well; proliferation of the MBP specific rat T cell line (in words) [2]: does not stimulate proliferation at any dose

**Q.** For “MBP(68-88): EAE-inducing myelin basic protein peptide from a different region (KRTADPKNAWQDAHPADPGSR; UniProt P02686 68-88, looked up, fragment) [reference compound]”, which “EAE Incidence” value [3] is on record?
**A.** The value was 6/6.

**Q.** And the “EAE Mean Maximum Clinical Score” value [3]?
**A.** Its value is 3 ± 0.

B1: IFN-γ: cytokine administered to MS patients in a pilot study (protein, UniProt P01579 24-161, looked up)
Interferon gamma: QDPYVKEAENLKKYFNAGHSDVADNGTLFLGILKNWKEESDRKIMQSQIVSFYFKLFKNFKDDQSIQKSVETIKEDMNVKFFNSNKKKRDDFEKLTNYSVTDLNVQRKAIHELIQVMAELSPAAKTGKRKRSQMLFRG
**Q.** With B1 as the molecule, how does the “patients with a clinical exacerbation within one month after initiation of treatment” value [4] read?
**A.** Its value is 7 of 18.

**Q.** What about the “specific response to MBP (in words)” value [4] of the same molecule?
**A.** The value was “increase”.
